# Measurements: IntAct's records for PubMed 29892012
# B1: Heterogeneous nuclear ribonucleoprotein F (Homo sapiens), P52597 (parent)
# chain: MMLGPEGGEGFVVKLRGLPWSCSVEDVQNFLSDCTIHDGAAGVHFIYTREGRQSGEAFVELGSEDDVKMALKKDRESMGHRYIEVFKSHRTEMDWVLKHSGPNSADSANDGFVRLRGLPFGCTKEEIVQFFSGLEIVPNGITLPVDPEGKITGEAFVQFASQELAEKALGKHKERIGHRYIEVFKSSQEEVRSYSDPPLKFMSVQRPGPYDRPGTARRYIGIVKQAGLERMRPGAYSTGYGGYEEYSGLSDGYGFTTDLFGRDLSYCLSGMYDHRYGDSEFTVQSTTGHCVHMRGLPYKATENDIYNFFSPLNPVRVHIEIGPDGRVTGEADVEFATHEEAVAAMSKDRANMQHRYIELFLNSTTGASNGAYSSQVMQGMGVSAAQATYSGLESQSVSGCYGAGYSGQNSMGGYD
# B2: Liprin-alpha-1 (Homo sapiens), Q13136 (parent)
# chain: MMCEVMPTISEAEGPPGGGGGHGSGSPSQPDADSHFEQLMVSMLEERDRLLDTLRETQETLALTQGKLHEVGHERDSLQRQLNTALPQEFAALTKELNVCREQLLEREEEIAELKAERNNTRLLLEHLECLVSRHERSLRMTVVKRQAQSPAGVSSEVEVLKALKSLFEHHKALDEKVRERLRVALERCSLLEEELGATHKELMILKEQNNQKKTLTDGVLDINHEQENTPSTSGKRSSDGSLSHEEDLAKVIELQEIISKQSREQSQMKERLASLSSHVTELEEDLDTARKDLIKSEEMNTKLQRDVREAMAQKEDMEERITTLEKRYLAAQREATSVHDLNDKLENEIANKDSMHRQTEDKNRQLQERLELAEQKLQQTLRKAETLPEVEAELAQRVAALSKAEERHGNIEERLRQMEAQLEEKNQELQRARQREKMNEEHNKRLSDTVDKLLSESNERLQLHLKERMAALEDKNSLLREVESAKKQLEETQHDKDQLVLNIEALRAELDHMRLRGASLHHGRPHLGSVPDFRFPMADGHTDSYSTSAVLRRPQKGRLAALRDEPSKVQTLNEQDWERAQQASVLANVAQAFESDADVSDGEDDRDTLLSSVDLLSPSGQADAHTLAMMLQEQLDAINKEIRLIQEEKENTEQRAEEIESRVGSGSLDNLGRFRSMSSIPPYPASSLASSSPPGSGRSTPRRIPHSPAREVDRLGVMTLLPPSREEVRDDKTTIKCETSPPSSPRALRLDRLHKGALHTVSHEDIRDIRNSTGSQDGPVSNPSSSNSSQDSLHKAPKKKGIKSSIGRLFGKKEKGRPGQTGKEALGQAGVSETDNSSQDALGLSKLGGQAEKNRKLQKKHELLEEARRQGLPFAQWDGPTVVVWLELWVGMPAWYVAACRANVKSGAIMSALSDTEIQREIGISNPLHRLKLRLAIQEIMSLTSPSAPPTSRTTLAYGDMNHEWIGNEWLPSLGLPQYRSYFMECLVDARMLDHLTKKDLRGQLKMVDSFHRNSFQCGIMCLRRLNYDRKELERKREESQSEIKDVLVWSNDRVIRWILSIGLKEYANNLIESGVHGALLALDETFDFSALALLLQIPTQNTQARAVLEREFNNLLVMGTDRRFDEDDDKSFRRAPSWRKKFRPKDIRGLAAGSAETLPANFRVTSSMSSPSMQPKKMQMDGNVSGTQRLDSATVRTYSC
# Variants of: B1
# Settings: with hnrl1_human HNRNPUL1, Q9BUJ2
# Chain of hnrl1_human HNRNPUL1, Q9BUJ2 (Q9BUJ2 whole entry): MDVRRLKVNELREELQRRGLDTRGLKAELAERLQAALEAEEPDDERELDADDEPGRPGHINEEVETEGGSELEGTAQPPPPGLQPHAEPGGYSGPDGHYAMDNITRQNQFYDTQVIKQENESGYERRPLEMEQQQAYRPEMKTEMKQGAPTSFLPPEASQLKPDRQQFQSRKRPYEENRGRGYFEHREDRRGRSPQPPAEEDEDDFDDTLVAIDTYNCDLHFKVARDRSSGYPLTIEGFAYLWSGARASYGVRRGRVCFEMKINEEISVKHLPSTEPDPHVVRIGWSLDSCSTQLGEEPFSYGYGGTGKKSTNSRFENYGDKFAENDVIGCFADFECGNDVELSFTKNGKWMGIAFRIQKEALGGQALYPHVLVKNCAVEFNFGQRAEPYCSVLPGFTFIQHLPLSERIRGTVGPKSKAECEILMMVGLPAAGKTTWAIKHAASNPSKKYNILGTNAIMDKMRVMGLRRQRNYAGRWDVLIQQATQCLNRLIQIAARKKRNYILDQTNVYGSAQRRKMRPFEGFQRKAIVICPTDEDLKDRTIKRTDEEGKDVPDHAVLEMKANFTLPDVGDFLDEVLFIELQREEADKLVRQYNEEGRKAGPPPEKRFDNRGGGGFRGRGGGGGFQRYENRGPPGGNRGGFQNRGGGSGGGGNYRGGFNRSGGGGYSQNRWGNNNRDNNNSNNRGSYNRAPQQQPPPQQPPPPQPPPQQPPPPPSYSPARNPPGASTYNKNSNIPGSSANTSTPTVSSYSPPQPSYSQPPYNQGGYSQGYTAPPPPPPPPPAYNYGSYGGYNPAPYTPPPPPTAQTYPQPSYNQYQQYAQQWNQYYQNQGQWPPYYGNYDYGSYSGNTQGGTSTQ
row,Variant,effect of a mutation on the interaction
1,T48A,with no effect

# Variants of: B2
# Settings: with txlna_human TXLNA
row,Variant,effect of a mutation on the interaction
1,P389L,with no effect

# Variants of: B2
# Settings: with 2a5d_human PPP2R5D
row,Variant,effect of a mutation on the interaction
1,P389L,with no effect

# Variants of: B2
# Settings: with ccnh_human CCNH
row,Variant,effect of a mutation on the interaction
1,P389L,with no effect

# Variants of: B2
# Settings: with 2a5d_human PPP2R5D
# Remark: another data set of the same source
row,Variant,effect of a mutation on the interaction
1,L330F,disrupting interaction strength

# Variants of: B2
# Settings: with ccnh_human CCNH
# Remark: another data set of the same source
row,Variant,effect of a mutation on the interaction
1,L330F,disrupting interaction strength
